The values that follow come from publication doi:10.1101/2021.02.18.431813 (bioRxiv, 2021).

Holding throughout (experiment): PIE-FCCS
One data set deals with Plexin A4 (human, UniProt Q9HCM2 24-1894).
The target in another data set is T1, Plexin A4ΔSema (human, UniProt Q9HCM2 24-1894, deletes residues 39-506).
T1 sequence (looked up): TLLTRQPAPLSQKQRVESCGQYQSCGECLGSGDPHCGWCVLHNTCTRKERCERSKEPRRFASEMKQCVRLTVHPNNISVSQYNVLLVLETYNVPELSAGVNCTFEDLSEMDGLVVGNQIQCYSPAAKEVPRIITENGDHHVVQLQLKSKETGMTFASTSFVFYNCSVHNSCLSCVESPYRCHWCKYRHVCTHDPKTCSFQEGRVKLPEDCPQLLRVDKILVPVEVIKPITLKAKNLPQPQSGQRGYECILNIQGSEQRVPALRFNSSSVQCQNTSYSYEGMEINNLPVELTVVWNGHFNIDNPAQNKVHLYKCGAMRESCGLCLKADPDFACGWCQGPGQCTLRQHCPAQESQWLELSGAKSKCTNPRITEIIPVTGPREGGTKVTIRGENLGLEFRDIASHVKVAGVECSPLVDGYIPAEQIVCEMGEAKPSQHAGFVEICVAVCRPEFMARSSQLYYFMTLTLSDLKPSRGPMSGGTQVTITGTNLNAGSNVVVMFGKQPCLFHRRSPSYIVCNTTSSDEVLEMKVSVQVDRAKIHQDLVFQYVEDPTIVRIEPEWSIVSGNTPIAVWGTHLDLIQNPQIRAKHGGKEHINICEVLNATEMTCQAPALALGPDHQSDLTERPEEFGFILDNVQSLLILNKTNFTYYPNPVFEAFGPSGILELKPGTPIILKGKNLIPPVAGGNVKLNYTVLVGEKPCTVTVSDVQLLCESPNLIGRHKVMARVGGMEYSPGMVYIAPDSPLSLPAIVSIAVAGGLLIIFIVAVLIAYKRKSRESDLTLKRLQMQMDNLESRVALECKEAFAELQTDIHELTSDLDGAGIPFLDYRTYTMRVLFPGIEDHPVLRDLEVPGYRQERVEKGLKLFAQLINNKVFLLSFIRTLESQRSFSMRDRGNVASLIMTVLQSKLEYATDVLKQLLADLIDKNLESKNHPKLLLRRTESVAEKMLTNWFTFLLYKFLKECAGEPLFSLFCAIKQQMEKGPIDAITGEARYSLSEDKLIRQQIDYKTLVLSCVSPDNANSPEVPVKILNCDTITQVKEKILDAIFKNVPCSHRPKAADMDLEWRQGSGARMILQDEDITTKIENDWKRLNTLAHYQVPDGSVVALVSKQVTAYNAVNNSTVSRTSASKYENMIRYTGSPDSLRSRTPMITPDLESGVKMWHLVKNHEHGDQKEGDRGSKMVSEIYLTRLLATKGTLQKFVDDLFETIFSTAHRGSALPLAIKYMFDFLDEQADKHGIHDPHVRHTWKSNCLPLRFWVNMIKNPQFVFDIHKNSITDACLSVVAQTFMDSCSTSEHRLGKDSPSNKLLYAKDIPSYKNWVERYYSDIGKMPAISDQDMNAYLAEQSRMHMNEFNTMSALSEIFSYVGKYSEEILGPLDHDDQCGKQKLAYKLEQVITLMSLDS

The data set “PIE-FCCS” concerns the molecule itself.

The stoichiometry N is the number of molecules, sites or subunits per partner or assembly.

B1: Plexin A2 (receptor, human, UniProt O75051 35-1894, looked up)
chain: MPQFSTFHSENRDWTFNHLTVHQGTGAVYVGAINRVYKLTGNLTIQVAHKTGPEEDNKSCYPPLIVQPCSEVLTLTNNVNKLLIIDYSENRLLACGSLYQGVCKLLRLDDLFILVEPSHKKEHYLSSVNKTGTMYGVIVRSEGEDGKLFIGTAVDGKQDYFPTLSSRKLPRDPESSAMLDYELHSDFVSSLIKIPSDTLALVSHFDIFYIYGFASGGFVYFLTVQPETPEGVAINSAGDLFYTSRIVRLCKDDPKFHSYVSLPFGCTRAGVEYRLLQAAYLAKPGDSLAQAFNITSQDDVLFAIFSKGQKQYHHPPDDSALCAFPIRAINLQIKERLQSCYQGEGNLELNWLLGKDVQCTKAPVPIDDNFCGLDINQPLGGSTPVEGLTLYTTSRDRMTSVASYVYNGYSVVFVGTKSGKLKKIRADGPPHGGVQYEMVSVLKDGSPILRDMAFSIDQRYLYVMSERQVTRVPVESCEQYTTCGECLSSGDPHCGWCALHNMCSRRDKCQQAWEPNRFAASISQCVSLAVHPSSISVSEHSRLLSLVVSDAPDLSAGIACAFGNLTEVEGQVSGSQVICISPGPKDVPVIPLDQDWFGLELQLRSKETGKIFVSTEFKFYNCSAHQLCLSCVNSAFRCHWCKYRNLCTHDPTTCSFQEGRINISEDCPQLVPTEEILIPVGEVKPITLKARNLPQPQSGQRGYECVLNIQGAIHRVPALRFNSSSVQCQNSSYQYDGMDISNLAVDFAVVWNGNFIIDNPQDLKVHLYKCAAQRESCGLCLKADRKFECGWCSGERRCTLHQHCTSPSSPWLDWSSHNVKCSNPQITEILTVSGPPEGGTRVTIHGVNLGLDFSEIAHHVQVAGVPCTPLPGEYIIAEQIVCEMGHALVGTTSGPVRLCIGECKPEFMTKSHQQYTFVNPSVLSLNPIRGPESGGTMVTITGHYLGAGSSVAVYLGNQTCEFYGRSMSEIVCVSPPSSNGLGPVPVSVSVDRAHVDSNLQFEYIDDPRVQRIEPEWSIASGHTPLTITGFNLDVIQEPRIRVKFNGKESVNVCKVVNTTTLTCLAPSLTTDYRPGLDTVERPDEFGFVFNNVQSLLIYNDTKFIYYPNPTFELLSPTGVLDQKPGSPIILKGKNLCPPASGGAKLNYTVLIGETPCAVTVSETQLLCEPPNLTGQHKVMVHVGGMVFSPGSVSVISDSLLTLPAIVSIAAGGSLLLIIVIIVLIAYKRKSRENDLTLKRLQMQMDNLESRVALECKEAFAELQTDINELTSDLDRSGIPYLDYRTYAMRVLFPGIEDHPVLRELEVQGNGQQHVEKALKLFAQLINNKVFLLTFIRTLELQRSFSMRDRGNVASLIMTGLQGRLEYATDVLKQLLSDLIDKNLENKNHPKLLLRRTESVAEKMLTNWFAFLLHKFLKECAGEPLFMLYCAIKQQMEKGPIDAITGEARYSLSEDKLIRQQIEYKTLILNCVNPDNENSPEIPVKVLNCDTITQVKEKILDAVYKNVPYSQRPRAVDMDLEWRQGRIARVVLQDEDITTKIEGDWKRLNTLMHYQVSDRSVVALVPKQTSSYNIPASASISRTSISRYDSSFRYTGSPDSLRSRAPMITPDLESGVKVWHLVKNHDHGDQKEGDRGSKMVSEIYLTRLLATKGTLQKFVDDLFETLFSTVHRGSALPLAIKYMFDFLDEQADRHSIHDTDVRHTWKSNCLPLRFWVNVIKNPQFVFDIHKGSITDACLSVVAQTFMDSCSTSEHRLGKDSPSNKLLYAKDIPSYKSWVERYYADIAKLPAISDQDMNAYLAEQSRLHAVEFNMLSALNEIYSYVSKYSEELIGALEQDEQARRQRLAYKVEQLINAMSIES
For the molecule B1, the “median fraction correlated (fc)” value came out at 0.08 with Plexin A4, 0.23 with Plexin A4ΔSema and 0.09 in “PIE-FCCS”. Besides, the “stoichiometry N” value in the data set “PIE-FCCS” was determined as 2.
